Experiment: label from the status in PepcDB records
In the case of “MRDRGDKPAEAGLGLTQTRQEDPAAMIDLYYAPTPNGWKISIMLEECGLPYKVVPMQLGRGDQHQPGFLKLSPNGRMPAIVDHAPIGGGAPLSVFESGAILIYLAEKSGQLMPTETRARFEVMQWLMWQMAGLGPMLGQNGHFLLYAPEKIPYAIDRYSREAKRLYGVLDQRLADRACIAGDYSIADIACFPWIMTHKAQGLTLDDYPNIKRWYAALRARPKLQAGLALGKEDKKPMDEQARKLLFGVDKPAHADAQAQSAQQQ”, the protein production is reported as “not failed”.
With “MRDRRAPSPCGWRSGRNDLRPARLDLAISAAMRTNSAPQPEGDADQPPSPSTPPAGPPPRRRFGFARRLLAPVLSPVAHYARRYLQASVEHELRQTQGQLHALSAELNAAQARIDHNRELMHLMLQQQQASAVAMQSVLAQLARIEGHSARAEDHGIRIEGLSRKLDGDIAGLPGVFGPRFDELEIKQRPLIAYDDESMAIRMRDGYVLAPRNLPTFVTMLANATSRGLEPGTGDVLRRLVQPGMVVADVGANIGLLTLVMAWATGPGGRVIAFEPEAIPRSNLEKMKHLNGLSWVEVRDQAVGERAGRLTFHVSDIIGHSSLYALPDAEEARTVEVEVVRLDDVAPAKRLDVVKIDVEGAELDVLAGMKGVIAKNPDLAIIAEFGPEHLARVGQTPVQWFKAFGDAGFKAYMINETSGDCEPTSAKAATTVVSANIAFVRAGGDAEMRLLGR” the protein production was “failed”.
For “MREEELNTEKVVAAIANPVENEVRKVWEDVVEKIEQRVAVIEQASHKLLQNKVSEEILSKAKVEAHKLAGSLGMFGSDEGSQIAQEIESLLDNGKKLKASGGKHLGQVVELEHHHHHH”, the protein production was “failed”.
For “MREGRLGYNSYNKRYGLLSSDLWIDTGFHCGEYLEVLLDDEWVQTRMEMNPAREWYLVGTPYCGDLEYIRARIPE”, the protein production was “failed”.
In the case of “MREPVDLRRQRILAAVQARGTARVRDLADELQVSVVTVRRDVEELTREGRLSRGHGVVRSTLPARESAPEAVPAAGDRVAVVVPVRHSYLTETLHGARTVLERAGVRMALHLAPQASGAERPLVERALADGADGLLIAPRWRGRADEEADHEWLAGTGVPTVLMERRPWRGSALHALDSVCSDHWYGAHLAVEHLVGLGHRRIVVATRHDSPTARSLRAAFTEIAGAHPLVERWAWTLVAPEAGADGPYSADETAEPPALMRKVGATAMVLHGDVDALMVVQRLAEEGVRVPEDCSVVAYDDVVAGLAAPPLTAVSPPKAEVGHTAAELLLQRLTEAPGGRRPGRRVELLPRLMVRGSTDRSVEPLDE”, the protein production is reported as “failed”.
In the case of “MRFGSRIEDGTGAPGAGRLARFAAVGGSGVVVNLAVLHVLAQGLGVPEVAASAVAIEASVLSNFLLHDAITFRDRRGGRGRLARLGRYHAVSLVGVAIQLATFAALALLARHALGRPSLGPLRLPAQAAGIALAFAWSWAGSARWAWAGAGAAVRGPEAGARGRALLPAVLFGALVALHVLPIWLVRYFPTQDGPLHVENVLALLHHGASPLLRGYYEANWGAQPNWLTQALLAPLLSIVSPLTAEKLVLSGYTVLLPISFRAVLPRGARGWWAALAVFPFVHAYPFHMGFWNFCYGVALAFLAAGFWLRTRGRLGPGRFAALAVLSLLLYLAHSVAFAGALLFAGAVLGLRAARSLARARRHPARRRRVAAAYARRAAAGLAAAAPGLLLLGAWLLAHRDRVAARIPLPELAAKLAAGYSLVSIDRRELPLAMAVMLVLAVAVVHAALVRAGRGVRLLAHDGWLVAAAAFVLLYFAVPDVVAAGAHVSDRMALLALLCVAAWLGAASAGPGAPARRAAVALAAIAVVALGVRLDKQRQLSAYLEEYASASAAVEEGRVMLPLALSPYGPQDAHGRRMGYRIKPFLHATGWIVAARGGVDLKNSQANTDHCPVRFPAGRNPFHVIAGSLGRMEGVPPCVDLRGARRLGRLDYVLVWGATRELLETPCGAALAADLAARYEPVWLSAPRGMLEIWRPRAAVAVAR”, the protein production is reported as “failed”.
In the case of “MRFKQNADHIVLTHVFNGGSAESAALCPQDKIIALDGYACTDFAAQWARYHVRAKINIHFFRAGILRQTVLTVQATALEHHHHHH”, the protein production is reported as “failed”.
With “MRFLAYFGHLNIDVLISVDSIPREGSVNVKDLRPRFGGTAGNFAIVAQKFRIPFDLYSAVGMKTHREYLAMIESMGINTGHVEKFEDESGPICYIATDGKKQVSFMHQGAMAAWAPQLADEYEYVHFSTGPNYLDMAKSIRSKIIFDPSQEIHKYSKDELKKFHEISYMSIFNDHEYRVFREMTGLSSPKVTTIVTNGERGSSLFMDGKKYDFPAIPSSGDTVGAGDSFRAGLYLALYNRRSIEKGMIYGTIIAHHVIDDGIENFSLNMEDLERETENYRRMFTKRS” the protein production was “not failed”.
For “MRFLSLVGNSFGCSASGERLVSAARDGDLQEAKALLDYNPRLARYSTFGVRNSPLHYSAAQGHHEIVSLLVESGVDINLRNYRGQTALMQACQHGHWEVVLILILFGANIHRSDYLNGGTALHLAALNGHPRCIRILLSEYIPSVPNCWSLLKNKKTSVAGFDSSVLHEVINRAADGGITPLHVAALNGHIETVQLLLDLGASVTQVTVEDGTTIDLIGAGSTALHYASCGGNTQCCQLLISKGACLAAVNSNGWTPMMVARSWHRNWLEEILNPTTEQPQLHLPNVPSPFLCLPLMSIVNIAQECGWRENDCLTPCRDPCAVCLERKCTVAADGCAHEFCTNCALYLSTTSITSSKTSNVTPGSVPCPLCRNGIVSFTKLPHTTATTRTSTSSRTSISLSFCTCSSDVLDTALLTNPHYSCKPVVSRTGSRTPQSARSSAFRSLSCRRFPPSLCLGGSDVDEPRSRLIGGSYSRSGVGFRRSTSQVEGKRSWFSALNHCVTTGGSAC”, the protein production was “failed”.
For “MRFSFLPIVILMMPILEIAGFIIVGKAIGLWLTLALILFTSFLGLLILRLGGVGMVRNLQAAGRTGAQPADELVNGAMRVVAGILLIIPGFITDILGLLLLSPAIRRFFWKAFGPRVVVSGSFRQSGPQQGDYSGFRNGPGPAGNSKVVDLDEEEFHREGSKDSPWSNRPDDRDLPKP”, the protein production was “failed”.
With “MRGCNKETGEFLGPSRSQQRRTALEVLVLSEKLAALTPAQLAKLPIPERLLPHITETKRITSHIARKRQLAFLAKQMRREDDTTLEAIREKLNASGIQAQREVATLHRTEQWRKRLLEEGDSALTELLNQYPQADCGKLRQLLRNSKTEQARNKAPQAFRELYQVLHGLIITQ” the protein production was “not failed”.
With “MRGDKFTLRDSLCLKVDGGRGVCLKGDGGRGVCLKGDGGRGVCLKGDSCDFNHSYTLPRREEVEKHQIELFKEEILSYMRKWISPHEFLQKVLDFNLKSLLVDLAATFNVRYPERQRLLV” the protein production was “failed”.
With “MRGKHIFIITALISILMLAACGQKNSSATVATATDSTITKSDFEKQLKDRYGKDMLYEMIAQDVITKKYKVSDDDVDKEVQKAKSQYGDQFKNVLKNNGLKDEADFKNQIKFKLSMNKAIKQSVTEKDVKDHYKPEIKASHILVSDENEAKEIKKKLDTGASFEELAKQESQDLLSKEKGGDLGYFHSGAMTPEFETAAYKLKIGQISDPVQSPNGYHIIKLTGKKDLKPYDEVKNSIRKNLEEERTADPIFGKKLLQSELKKANIKINDSELEDTFTIVSPQGN” the protein production was “failed”.
With “MRGKKRIGLLFLLIAVVVGGGGLLLAQKVLHKTSDTAFCLSCHSMSKPFEEYQGTVHFSNQKGIRAECADCHIPKSGMDYLFAKLKASKDIYHEFVSGKIDSDDKFEAHRQEMAETVWKELKATDSATCRSCHSFDAMDIASQSESAQKMHNKAQKDSETCIDCHKGIAHFPPEIKMDDNAAHELESQAATSVTNGAHIYPFKTSHIGELATVNPGTDLTVVDASGKQPIVLLQGYQMQGSENTLYLAAGQRLALATLSEEGIKALTVNGEWQADEYGNQWRQASLQGALTDPALADRKPLWQYAEKLDDTYCAGCHAPIAADHYTVNAWPSIAKGMGARTSMSENELDILTRYFQYNAKDITEKQ” the protein production was “failed”.
In the case of “MRGLAVLVLLVFAVQVAAAEDFRPVVFVHGLAGSAGQFESQGMRFAANGYPAEYVKTFEYDTISWALVVETDMLFSGLGSEFGLNISQIIDPETLDKILSKSRERLIDETFSRLDRVIDEALAESGADKVDLVGHSMGTFFLVRYVNSSPERAAKVAHLILLDGVWGVDAPEGIPTLAVFGNPKALPALGLPEEKVVYNATNVYFNNMTHVQLCTSPETFAVMFEFINGYKPATTDIVPQDGDYVKVKGKFLAFATNGDVSGWLSIYPIDENGKRLTRLPVKFMRVKGDFEVRLRKGQLYEFQFRKDFSPIIYHYYRAPFVRDDLWARFLVSKPPLDVELLILPERLSPAAKETSGLLLIRYKEMIGEYDEEIGGVDEVYVNGVNVCTERICPIERAVNGLWVFDRGADGKSDLDREVVRYSIMPFMSAADLVVPAEGTISIAVKSRTGGEESFTIPAWSADRHSIIVQFSDYI”, the protein production is reported as “failed”.
In the case of “MRGLKTFSILGLIVALLLVAACGNTDNSSKKESSTKDTISVKDENGTVKVPKDAKRIVVLEYSFADALAALDVKPVGIADDGKKKRIIKPVREKIGDYTSVGTRKQPNLEEISKLKPDLIIADSSRHKGINKELNKIAPTLSLKSFDGDYKQNINSFKTIAKALNKEKEGEKRLAEHDKLINKYKDEIKFDRNQKVLPAVVAKAGLLAHPNYSYVGQFLNELGFKNALSDDVTKGLSKYLKGPYLQLDTEHLADLNPERMIIMTDHAKKDSAEFKKLQEDATWKKLNAVKNNRVDIVDRDVWARSRGLISSEEMAKELVELSKKEQK”, the protein production is reported as “failed”.
For “MRGLSRRVQAMKPSATVAVNAKALELRRQGVDLVALTAGEPDFDTPEHVKEAARRALAQGKTKYAPPAGIPELREALAEKFRRENGLSVTPEETIVTVGGKQALFNLFQAILDPGDEVIVLSPYWVSYPEMVRFAGGVVVEVETLPEEGFVPDPERVRRAITPRTKALVVNSPNNPTGAVYPKEVLEALARLAVEHDFYLVSDEIYEHLLYEGEHFSPGRVAPEHTLTVNGAAKAFAMTGWRIGYACGPKEVIKAMASVSSQSTTSPDTIAQWATLEALTNQEASRAFVEMAREAYRRRRDLLLEGLTALGLKAVRPSGAFYVLMDTSPIAPDEVRAAERLLEAGVAVVPGTDFAAFGHVRLSYATSEENLRKALERFARVLGRA”, the protein production was “not failed”.
For “MRGPAEQPPVTAISADATDADAAWRIMEQTRPDVVIMNAGAEPPMERIDRIGWEAFTTNWNVDVKAALHWVQAALTVPMAPGGLVVLISSGAAVQGSPLSGGYAGAKRAQWFIAKYADGLSAELGLGLRFRVLVPRQMFVGTGVGDTGIGAYAAKAGRTFAEQAATWPNMTPRAFGDTVAELIGKSGLAEAMVYAVRGDTGVTVIE”, the protein production was “failed”.
For “MRGPAVLLTVALATLLAPGAGAPVQSQGSQNKLLLVSFDGFRWNYDQDVDTPNLDAMARDGVKARYMTPAFVTMTSPCHFTLVTGKYIENHGVVHNMYYNTTSKVKLPYHATLGIQRWWDNGSVPIWITAQRQGLRAGSFFYPGGNVTYQGVAVTRSRKEGIAHNYKNETEWRANIDTVMAWFTEEDLDLVTLYFGEPDSTGHRYGPESPERREMVRQVDRTVGYLRESIARNHLTDRLNLIITSDHGMTTVDKRAGDLVEFHKFPNFTFRDIEFELLDYGPNGMLLPKEGRLEKVYDALKDAHPKLHVYKKEAFPEAFHYANNPRVTPLLMYSDLGYVIHGRINVQFNNGEHGFDNKDMDMKTIFRAVGPSFRAGLEVEPFESVHVYELMCRLLGIVPEANDGHLATLLPMLHTESALPPDGRPTLLPKGRSALPPSSRPLLVMGLLGTVILLSEVA”, the protein production was “failed”.
For “MRGRIMSTFTTISSDKLARLIGTANAPVLIDVRTEEDFAADRRLIPGSIRLSHENVPDWGAAFAGRSVIVSCLRGAKLAQGTAAWLRQLGVQAETLDGGFEGWKEAKLPLLDTRKLPPRDAKGRTVWVTRARPKVDRIACPWLIRRFVDPNAVFLYVAPSEVVAVGERFNAAPFDIENVFWSHRGELCTFDVMIEEFGIATPALLRLATLVRGADTARPDLAPEAPGLLAASLGLSRMYDDDLEQLEAGLLLYDAFYRWCRDATAETHNWPTNKVKA”, the protein production was “failed”.
In the case of “MRGTTDEEDGVMNFSDVLMMSDDVLSSGEVEEDSFGFRFTGNDAPQMLCFGGGNQNDTDLLFSQPSFSPASPLSSRNNACVVNDQSFRSNKKTGSADGHDRVCDPKPGKRCKRDQKKSSLGNAKDDEDTGEVNPTMKVKELRSNGLCLVPLAWTVHVANTNGADLWSSAILSPLTSHTNSEPVEIVEVKSHKDK”, the protein production is reported as “failed”.

Source: a protein production outcome set (Wang et al. 2014)
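Further: failed if final PepcDB status was selected cloned or expressed and not failed if soluble or beyond.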
